Where no end group is shown, it is not given here.
T1: Tau fragment 37-51 (human, UniProt P10636-8 37-51)
T1 construct: range 37-51
T1 peptide (looked up): GDTDAGLKESPLQTP

T2: Tau fragment 28-42 (human, UniProt P10636-8 28-42)
T2 construct: range 28-42
T2 peptide (looked up): GYTMHQDQEGDTDAG

T3: Tau fragment 19-33 (human, UniProt P10636-8 19-33)
T3 construct: range 19-33
T3 peptide (looked up): GLGDRKDQGGYTMHQ

T4: MAPT(10-24) (human, also: biotinylated (position not given here))
T4 construct: also called Tau fragment 10-24
T4 peptide: VMEDHAGTYGLGDRK

T5: Tau fragment 1-15 (human, UniProt P10636-8 1-15)
T5 construct: range 1-15
T5 peptide (looked up): MAEPRQEFEVMEDHA


Key:
Tau fragment 37-51 = biological target: T1, Tau fragment 37-51; assay: ELISA on Tau 15-mer peptides
Tau fragment 28-42 = biological target: T2, Tau fragment 28-42; assay: ELISA on Tau 15-mer peptides
[1] = biological target: T6, Human Tau monomer (recombinant 2N4R isoform, amino acids 2-441) (human, UniProt P10636-8 2-441); assay: SPR, hIgG captured, Tau monomer 3.1-100 nM
T6 construct: range 2-441; also called monomeric human Tau; human monomer Tau protein
Procedure: To assess the impact of N²⁸ deamidation on the affinity for human Tau, it was desirable to obtain two samples with widely separated N²⁸ deamidation status. Hu37D3-H9.v5 hIgG4.S228P was incubated at 40° C. for two weeks at a concentration of 1 mg/ml in Phosphate Buffered Saline, pH 7.4. Deamidation of the N²⁸G²⁹ motif was measured using LC-MS/MS. […] The stressed and unstressed antibodies were analyzed for Tau binding by surface plasmon resonance (Biacore) using the GE Biacore human IgG capture kit and a Series S CM5 chip. The hIgG were diluted to 2 μg/ml in 10 mM HEPES pH7.4, 150 mM NaCl, 0.05% Tween 20 (running buffer, HBSP) and captured at a flow rate of 10 μl/min for 15 seconds (t0 sample) or 17 seconds (t2 sample). […] Between cycles the surface was regenerated using a 30 second injection of 3M Magnesium Chloride at 10 μl/min. A 1:1 binding model was fitted to the data using instrument defaults, including local fitting of the “RI” parameter.

[2] = biological target: T6, Human Tau monomer (recombinant 2N4R …); assay: SPR 25C, hIgG captured, Tau monomer analyte
[3] = biological target: T6, Human Tau monomer (recombinant 2N4R …); assay: SPR 37C, hIgG captured, Tau monomer 0.1-33.3 nM
Procedure: Affinity for human and cynomolgus monkey Tau was measured at 37° C. using a Biacore T200 instrument, the GE Biacore human IgG capture kit and a Series S CM5 Sensor Chip. Antibodies were diluted to 1 μg/ml in running buffer HBS-EP (10 mM HEPES pH7.4, 150 mM NaCl, 1 mM EDTA, 0.05% Tween 20) and captured at a flow rate of 10 μl/min for 15 seconds. Data was collected for the binding of human and cynomolgus Tau monomer, each of which was injected at 0, 0.1, 0.4, 1.2, 3.7, 11.1, and 33.3 nM, using a flow rate of 30 μl/min, a contact time of 300 s, and a dissociation time of 900 s. Between cycles, the surface was regenerated with 3M magnesium chloride. Data was fit to a 1:1 binding model using BIAEvaluation software.

Tau fragment 19-33 = biological target: T3, Tau fragment 19-33; assay: ELISA on Tau 15-mer peptides
MAPT(10-24) = biological target: T4, MAPT(10-24); assay: ELISA on Tau 15-mer peptides
Tau fragment 1-15 = biological target: T5, Tau fragment 1-15; assay: ELISA on Tau 15-mer peptides

T6 sequence (P10636 other isoform, or with tags, fused parts or gaps limits assumed): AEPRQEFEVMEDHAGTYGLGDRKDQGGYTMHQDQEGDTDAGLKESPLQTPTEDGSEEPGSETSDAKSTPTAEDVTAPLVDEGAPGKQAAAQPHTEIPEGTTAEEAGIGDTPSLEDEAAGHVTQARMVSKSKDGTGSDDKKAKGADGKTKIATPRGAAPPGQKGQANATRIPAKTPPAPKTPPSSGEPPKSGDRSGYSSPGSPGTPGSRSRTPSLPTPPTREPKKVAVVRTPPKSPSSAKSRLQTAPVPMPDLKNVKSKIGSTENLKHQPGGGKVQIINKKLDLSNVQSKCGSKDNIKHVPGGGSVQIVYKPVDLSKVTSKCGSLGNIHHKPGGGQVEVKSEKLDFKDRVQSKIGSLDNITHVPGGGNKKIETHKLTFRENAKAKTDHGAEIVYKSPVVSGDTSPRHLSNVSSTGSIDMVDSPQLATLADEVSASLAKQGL

binding result (Tau fragment 37-51) | binding result (Tau fragment 28-42) | Kd [3] [nM] | koff [3] [s⁻¹] | kon [3] [M⁻¹ s⁻¹] | binding result (Tau fragment 19-33) | binding result (Tau fragment 1-15) | Binder | further results
no binding | no binding | – | – | – | – | – | 94B2-C1 (antibody, IgG2a, V domains shown, Ex.2 hybridoma supernatant; Ex.3 recombinant mIgG2a/kappa) VH: EVQLQQSGPELVKPGASMKISCKASGYSLTGYTMNWVKQSHGKNLEWIGLISPYNGVTSYNQKFKGKATLTVDKSSNTAYMELLSLTFEDSAVYYCARQGAYWGQGTLVTVSA VL: not shown | –
– | – | – | – | – | – | – | hu37D3-H9.v5 hIgG4.S228P, stressed (t = 2 weeks) (antibody, V domains shown, light chain N28 (Kabat) partly deamidated: 43.1% increase after 2 weeks at 40 C in PBS pH 7.4, human IgG4 with S228P, kappa; thermally stressed sample, a mixed population) VH: EVQLVESGGGLVQPGGSLRLSCAASGLIFRSYGMSWVRQAPGKGLEWVATINSGGTYTYYPDSVKGRFTISRDNSKNTLYLQMNSLRAEDTAVYYCANSYSGAMDYWGQGTLVTVSS VL: EDVLTQTPLSLPVTPGQPASISCRSSQSIVHSNGNTYFEWYLQKPGQSPQLLIYKVSNRFSGVPDRFSGSGSGTDFTLKISRVEAEDVGVYYCFQGSLVPWTFGQGTKVEIK | Kd [1]: 0.7 nM; Kd [2]: 1.5 nM
– | – | 0.1 | 0.000818 | 6.19e+06 | – | – | hu37D3-H9.v83 (antibody, V domains shown) VH: EVQLLESGGGLVQPGGSLRLSCAASGLIFRSYGMSWVRQAPGKGLEWVATINSGGTRTYYPDSVKGRFTISRDNSKNTLYLQMNSLRAEDTAVYYCANSYSGAMDYWGQGTLVTVSS VL: DDLLTQSPLSLPVTLGQPASISCRSSQSIVHSNGNTYLEWYQQRPGQSPRLLIYKVSNRFSGVPDRFSGSGSGTDFTLKISRVEAEDVGVYYCFQGTLVPWTFGQGTKVEIK | –
– | – | 0.1 | 0.000892 | 6.94e+06 | – | – | hu37D3-H9.v76 (antibody, V domains shown) VH: EVQLVESGGGLVQPGGSLRLSCAASGLIFRSYGMSWVRQAPGKGLEWVATINSGGTRTYYPDSVKGRFTISRDNSKNTLYLQMNSLRAEDTAVYYCANSYSGAMDYWGQGTLVTVSS VL: DDLLTQTPLSLPVTPGQPASISCRSSQSIVHSNGNTYLEWYLQKPGQSPQLLIYKVSNRFSGVPDRFSGSGSGTDFTLKISRVEAEDVGVYYCFQGTLVPWTFGQGTKVEIK | –
– | – | 0.1 | 0.00102 | 6.89e+06 | – | – | hu37D3-H9.v93 (antibody, V domains shown) VH: EVQLVESGGGLVQPGGSLRLSCAASGLIFRSYGMSWVRQAPGKGLEWVATINSGGTRTYYPDSVKGRFTISRDNSKNTLYLQMNSLRAEDTAVYYCANSYSGAMDYWGQGTLVTVSS VL: EDLLTQSPSSLSASVGDRVTITCRSSQSIVHSNGNTYLEWYQQKPGKSPKLLIYKVSNRFSGVPSRFSGSGSGTDFTLTISSLQPEDFATYYCFQGTLVPWTFGQGTKVEIK | –
– | – | – | – | – | no binding | no binding | 89F4-A1 (antibody, IgG2a, V domains shown, Ex.2 hybridoma supernatant; Ex.3 recombinant mIgG2a/kappa) VH: EVQLVESGGGLVQPKGSLKLSCAASGFTFNTYAMNWVRQAPGKGLEWVARIRSKSNNYAAYFADSVKDRFTISRDDSQTMLYLQMNNLKSEDTAMYYCVSGGNYVPFAYWGQGTLVTVSA VL: NIMMTQSPSSLAVSAGEKVTMSCKSSQSVFYSSEQRNYLAWYQQKPGQSPKLLISWASTRESGVPDRFTGSGSGTDFTLTISSVQGEDLAVYYCHQYLSSFTFGSGTKLEIK | binding result (MAPT(10-24)): no binding
no binding | – | – | – | – | – | no binding | 123E9-A1 (antibody, IgG2a, V domains shown, Ex.2 hybridoma supernatant; Ex.3 recombinant mIgG2a/kappa) VH: EVQLQQSGPELVKPGASVKMSCKASGYTFTDYYMKWVKQSHGKSLEWIGDIDPNNGGTSYNQKFKGKATLTVDKSSSTAYMQLNSLTSEDSAVYYCARSAGFGDSFSFWGLGTLVTVSA VL: DVLMTQTPLSLPVSLGDQASISCRSSQSIVHSNGNTYLEWYLQKPGQSPKLLIYKVSNRFSGVPDRFSGSGSGTDFTLKISRVEAEDLGFYYCFQGSHVPPTFGGGTKLEIK | binding result (MAPT(10-24)): no binding
no binding | no binding | – | – | – | no binding | no binding | 19H6-F7 (antibody, IgG2a, V domains shown, Ex.2 hybridoma supernatant; Ex.3 recombinant mIgG2a/kappa) VH: EVQLVESGGDLVKPGGSLKLSCAASGFTFSSYGMSWVRQTPDKRLEWVATISSGGTYTYYPDSVKGRFTISRDNAKNTLYLQMSSLKSEDTAMYYCAPSYDGAMDYWGQGTSVTVSS VL: DVLMTQTPLSLPVSLGDQASISCRSSQSIVHSNGNTYLEWYLQKPGQSPKLLIYKVSNRFSGVPDRFSGSGSGTDFTLKISRVEAEDLGVYYCFQGSLVPWTFGGGTKLEIK | –
no binding | no binding | – | – | – | no binding | no binding | 54C1-H11 (antibody, IgG2a, V domains shown, Ex.2 hybridoma supernatant; Ex.3 recombinant mIgG2a/kappa) VH: EVQLVESGGDLVKPGGSLKVSCVASGFTFRSYGMSWVRQTPDKRLDWVATISSGGNYTYYPDSVKGRFTISRDNAKNTLYLQMSSLKSEDTAMYYCASSYSGAMDYWGQGTSVTVSS VL: DTVMTQSPLSLPVSLGDQASISCRSSQSIVHSNGNTYLEWYLQKPGQSPKLLIYTVSNRFSGVPDRFSGSGSGTDFTLKISRVEAEDLGVYYCFQGSHVPWTFGGGTKLEIK | –
no binding | no binding | – | – | – | no binding | no binding | 3A4-H4 (antibody, IgG2a, V domains shown, Ex.2 hybridoma supernatant; Ex.3 recombinant mIgG2a/kappa) VH: EVQLVESGGDLVKPGGSLKLSCAASGFTFSSYGMSWVRQTPDKRLEWVATISSGGTYTYYPDSVKGRFTISRDNAKNTLYLQMSSLKSEDTAMYFCATSYDGAMDYWGQGTSVTVSS VL: DVLMTQTPLSLPVSLGDQASISCRSSQNIVHSNGNTYLEWYLQKPGQSPKLLIYKVSNRFSGVPDRFSGSGSGTDFTLKISRVEAEDLGVYYCFQGTLVPWTFGGGTKLEIK | –

From patent US20230043289A1 (AC IMMUNE, published 2023)
